Results on nine molecules are retold here after patent US20210206850A1 (ACCURUS BIOSCIENCES, published 2021).

First the molecules themselves.
T1: His tagged mouse CD47 protein (mouse, UniProt Q61735 19-140, limits assumed)
T1 construct: Bought protein
T1 sequence (looked up): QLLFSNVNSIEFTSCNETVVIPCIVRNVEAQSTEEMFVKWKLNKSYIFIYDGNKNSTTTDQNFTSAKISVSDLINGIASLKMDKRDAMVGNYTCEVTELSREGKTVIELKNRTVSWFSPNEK

B1: D28S1 mouse anti-human CD47 hybridoma antibody (antibody, V domains shown)
VH: EVQLVESGGDLVKPGGSLKLSCAASGFTFTSYGMSWVRQTPDKRLEWVATINTGGSYTYYPDSVKGRFTISRDNAKNTLYLQMSSLKSEDTAMYYCARHTIKSLMDYWGQGTSVTVSS
VL: ETTVTQSPASLSMAIGEKVTIRCITSTDIDDDMNWYQQKPGEPPKLLISEGNTLRPGVPSRFSSSGYGTDFVFIIENMFSEDVADYYCLQSDNLPYTFGSGTKLEIK
notes: Mouse hybridoma IgG
B2: D36S4 mouse/human chimeric anti-human CD47 antibody (antibody, V domains shown)
VH: EVKLEESGGGLVQPGGSMKLSCVASGFTFSRYWMNWVRQSPDKGLEWVAQIRLKSDNYETHYAESVKGRFTISRDDSKSSVYLQMNNLRAEDTGIYYCIEEGGYYVPFAYWGQGTLVTVSA
VL: DIVVSQSPSSLAVSAGEKVTMSCKSSQSLFKSRTRKNYLAWYQQRPGQSPKLLIYWASIRESGVPDRFTGSGSGTEFTLTISSVQAEDLAVYYCKQSYYLLTFGAGTKLELK
notes: also called chimeric D36S4 antibody; D36S4 H/L
B3: AB6.12, a humanized version of anti-CD47 antibody 2A1 from Celgene (antibody, from another filing, V domains shown)
VH: QMQLVQSGAEVKKTGSSVKVSCKASGFNIKDYYLHWVRQAPGQALEWMGWIDPDQGDTEYAQKFQDRVTITRDRSMSTAYMELSSLRSEDTAMYYCNAAYGSSSYPMDYWGQGTTVTVSS
VL: NIQMTQSPSAMSASVGDRVTITCKASQDIHRYLSWFQQKPGKVPKHLIYRANRLVSGVPSRFSGSGSGTEFTLTISSLQPEDFATYYCLQYDEFPYTFGGGTKVEIKR
B4: D96S1 mouse/human chimeric anti-human CD47 antibody (antibody, V domains shown)
VH: EVQLQQSGAELVKPGASVKLSCTASGFNIKDTYIHWVKQRPEQGLEWIGRIDPANGNIKSDPKFQGKATVTADTSSNTAYLQLSSLTSEDTAVYYCARSYGSSFASWGQGTLVTVSP
VL: DIQMTQTTSSLSASLGDRVTISCRASQDISNHLNWYQQKPDGAVKLLIYYTSRLHSGVPSRFSGSGSGTDYSLTISNLEQEDIATYFCQQGSTFPYTFGGGTKLEIK
notes: also called chimeric D96S1
B5: D125S3 mouse/human chimeric anti-human CD47 antibody (antibody, V domains shown)
VH: EVQLVESGGDLVKPGGSLNLSCAASGFTFSDYGMSWVRQTPDMRLEWVATISKYGTYTSYPDSVKGRFTISRSNAKNTLYLQMSSLKSADTALYYCARRFFGNYNYWYFDVWGAGTTVTVSS
VL: DIVLTQSPASLAVSLGQRATFSCRASESVDEFGISYIHWYKKSPGQPPKLLIYRASTLESGISARFSGSGSGTDFTLTINPVETDDVATYYCQQSNQDPLTFGAGTKLELK
notes: also called chimeric D125S3
B6: D8S1 (antibody, V domains shown)
VH: EVQLQQSVAELVRPGASVKLSCTVSGFNIKNTYIYWVKQRPEQGLEWIGRIDPANGNTKDAPKFQGKATMTADTSSNTAYLQLSSLTSEDTAIYYCARGYGSGFAYWGQGTLVTVSA
VL: B4 VL with A43I, F94L, Y96F, G100S
notes: Mouse hybridoma form; the mouse/human chimeric form with the same V regions is m13; also called D8S1 mouse anti-human CD47 hybridoma antibody
B7: D96S1 mouse anti-human CD47 hybridoma antibody (antibody, V domains shown)
VH: B4 VH
VL: B4 VL
notes: Mouse hybridoma IgG
B8: D41S2 (antibody, V domains shown)
VH: B6 VH with V24P, K38R
VL: B4 VL with A43T, F94L, Y96F, G100S
notes: Mouse hybridoma form; the mouse/human chimeric form with the same V regions is m16; also called D41S2 mouse anti-human CD47 hybridoma antibody
B9: D125S3 (antibody, V domains shown)
VH: B5 VH
VL: B5 VL
notes: Mouse hybridoma form; the mouse/human chimeric form with the same V regions is m18; also called D125S3 mouse anti-human CD47 hybridoma antibody

Residue numbers refer to the chain shown, from its start. Values joined by “and” are separate entries in the source; they are usually repeats but may differ in a detail not shown here. Equal entries are not always repeated.

T2 sequence (Q08722 19-139 limits assumed): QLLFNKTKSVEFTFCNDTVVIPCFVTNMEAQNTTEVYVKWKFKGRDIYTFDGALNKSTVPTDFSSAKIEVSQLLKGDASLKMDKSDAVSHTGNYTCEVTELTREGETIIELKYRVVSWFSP

One assay has as its target T2, human CD47ECD His tagged protein (human, UniProt Q08722 19-139, limits assumed).
T2 construct: extracellular domain; also called HuCD47ECD 8xHis; monovalent CD47ECD His tagged protein
Nature of the assay: ELISA competition; plate-bound human CD47ECD His, competitor ligand SIRPα huFc 1 ug/ml. On the procedure: (§1) To evaluate the blocking ability of anti-human CD47 mouse mAb on recombinant human CD47 binding to its ligand SIRPα, an ELISA based ligand blocking assay was employed. Briefly, microtiter plates were coated with human CD47ECD His tagged protein at 1 μg/ml in PBS, 100 μl well at 4° C. overnight, then blocked with 100 μl/well of 2% BSA. […] The plates were washed with PBS/Tween and then incubated with anti-human IgG-HRP for 1 hour at 37° C. After washing, the plates were developed with TMB substrate and analyzed by spectrophotometer at OD 450 nm.
As for B1, the IC50 is 1 nM.

The target of the next assay is T2, human CD47ECD His tagged protein. Description: ELISA ligand blocking, plate coated with human CD47 ECD His tagged protein at 1 ug/ml; blocked ligand human SIRPaECD muFc at 1 ug/ml, anti-mouse IgG-HRP. On the procedure:
Briefly, microtiter plates were coated with human CD47ECD His tagged protein at 1 μg/ml in PBS, 100 μl well at 4° C. overnight, then blocked with 100 μl/well of 2% BSA. […] The plates were washed with PBS/Tween and then incubated with anti-mouse IgG-HRP for 1 hour at 37° C. After washing, the plates were developed with TMB substrate and analyzed by spectrophotometer at OD 450 nm.
Consider B2, for which the half-inhibitory concentration (IC50) amounted to 0.07 mg/L.

The target of another assay is T3, human CD47ECD mouse Fc protein (human, UniProt Q08722 19-139, limits assumed).
T3 construct: extracellular domain; also called HuCD47ECD muFc; bivalent CD47ECD muFc protein; not shown: mouse Fc
T3 sequence (Q08722 19-139 limits assumed): as above
Nature of the assay: SPR (Biacore 3000); antibody captured on anti-human Fc chip, bivalent HuCD47ECD muFc injected; column Affinity (nM). The procedure: (§2) The binding affinities of anti-human CD47 mouse/human chimeric antibodies to human CD47 protein were determined with BIACORE™ using a capture method. The anti-human CD47 mouse/human chimeric antibodies were captured using anti-human Fc antibody coated on a CMS chip. Serial dilutions of human CD47ECD mouse Fc protein starting from 400 nM were injected over captured antibody for 1 mins at a flow rate of […]. Alternatively, serial dilutions of human CD47ECD His tagged protein starting from 800 nM were injected over captured antibody for 1 min at a flow rate of […]. The antigens were allowed to dissociate for 900s. All the experiments were carried out on a Biacore 3000. Data analysis was carried out using Biacore 3000 evaluation software.
In the case of B3, the Kd came out at 0.0479 nM.
Molecule B4 returned a Kd of 0.562 nM.
In turn, B5 registered a Kd of 0.346 nM.
In the case of B2, the Kd was determined as 0.0194 nM.

For the next assay, the target named is T2, human CD47ECD His tagged protein. Description: ELISA ligand blocking, plate coated with human CD47 ECD His tagged protein at 1 ug/ml; blocked ligand human SIRPaECD huFc at 1 ug/ml, anti-human IgG-HRP. The procedure: as §1
Take B6: the IC50 was 0.27 µg/mL and 1.77 nM.
Turning to B7, the concentration for half-maximal inhibition (IC50) is 1.94 µg/mL and 12.9 nM.
On the same count and under the same terms, under B8 stands 0.16 µg/mL and 1.06 nM; under B1, 0.15 µg/mL and 1.02 nM; under B9, 0.25 µg/mL and 1.69 nM.

The next assay deals with T1, His tagged mouse CD47 protein. Nature of the assay: ELISA, plate coated with His tagged mouse CD47 at 2 ug/ml, goat anti-mouse IgG-HRP, OD450. On the procedure:
To evaluate the binding cross-reactivity of anti-human CD47 antibodies to cynomolgus and mouse CD47, an ELISA based binding assay was used. Briefly, microtiter plates were coated with His tagged cynomolgus monkey CD47 or His tagged mouse CD47 protein (purchase from Acro Biosystem). Both proteins were coated at 2 μg/ml in PBS, 100 μl/well at 4° C. overnight. The plates were then blocked with 100 μl/well of 2% BSA. Ten-fold dilutions of mouse anti-human CD47 hybridoma antibodies were added to each well starting at 70 ug/ml and incubated for 1-2 hours at RT. The plates were washed with PBS/Tween and then incubate with goat-anti-mouse IgG antibody conjugated with Horse Radish Peroxidase (HRP) for 1 hour at RT. After washing, the plates were developed with TMB substrate and analyzed by spectrophotometer at OD 450 nm.
As for B6, the binding result is recorded as “no binding (tested: 70 ug/ml)”.
With B7, the binding result was “no binding (tested: 70 ug/ml)”.
Regarding B8, the binding result is recorded as “no binding (tested: 70 ug/ml)”.
On the same count and under the same terms, under B9 stands “no binding (tested: 70 ug/ml)”.

The target of another assay is T4, human CD47 (full length) expressed on cells (human, UniProt Q08722 19-323).
T4 construct: whole, on cells; also called human CD47/CHO cells; CHO/CD47 cells
T4 sequence (Q08722 19-323): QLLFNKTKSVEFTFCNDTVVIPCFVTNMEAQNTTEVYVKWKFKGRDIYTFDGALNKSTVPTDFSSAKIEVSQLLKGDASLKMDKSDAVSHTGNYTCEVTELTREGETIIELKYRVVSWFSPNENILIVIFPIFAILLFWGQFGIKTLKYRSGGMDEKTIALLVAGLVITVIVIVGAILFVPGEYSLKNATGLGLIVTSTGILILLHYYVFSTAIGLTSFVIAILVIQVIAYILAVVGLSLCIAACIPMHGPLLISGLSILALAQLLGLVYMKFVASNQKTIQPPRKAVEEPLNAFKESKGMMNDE
Description: FACS ligand blocking on CD47-CHO cells; blocked ligand FITC human SIRPa huFc at 4 ug/ml. The procedure:
To evaluate the blocking effect of anti-human CD47 mouse/human chimeric antibodies to human full length CD47 expressed on CHO cells, the FACS-based ligand blocking assay was used. CD47-CHO cells were first incubated with 3 fold serially diluted mouse/human chimeric mAbs starting at 100 μg/ml on ice for 30 min. […] The cells were then washed 3 times with the FACS buffer and the mean florescence intensities (MFI) of FITC were evaluated by FACS Caliber. […] AB6.12 is a humanized version of anti-CD47 antibody 2A1 from Celgene and was used as a reference antibody in the assay.
As to B4, the IC50 was found to be 11.3 mg/L.
With B5, the IC50 amounted to 15.4 mg/L. The IC50 values of the last two molecules are within 1.5-fold of each other.
Turning to B2, the IC50 worked out at 5.1 mg/L.

For the next assay, the target named is T2, human CD47ECD His tagged protein. Description: SPR (Biacore 3000); antibody captured on anti-human Fc chip, monovalent HuCD47ECD 8xHis injected. On the procedure: as §2
On to B3, for which the Kd was found to be 0.798 nM, the koff is 0.000703 s⁻¹ and the kon was 881000 M⁻¹ s⁻¹.
The molecule B4 yielded a Kd of 3.13 nM, a dissociation rate constant (koff) of 0.000253 s⁻¹ and a kon of 80900 M⁻¹ s⁻¹.
Take B5: the Kd stood at 3.62 nM, the koff came to 0.000511 s⁻¹ and the association rate constant (kon) came to 163000 M⁻¹ s⁻¹.
For B2, the Kd amounted to 0.702 nM, the koff is 0.000236 s⁻¹ and the kon came out at 337000 M⁻¹ s⁻¹.

In the next assay the target is T3, human CD47ECD mouse Fc protein. Nature of the assay: SPR (Biacore 3000); antibody captured on anti-human Fc chip, bivalent HuCD47ECD muFc injected. The procedure:
as §2
Molecule B3 came in with a Kd of 0.0479 nM, a koff of 2.25e-05 s⁻¹ and a kon of 469000 M⁻¹ s⁻¹.
On to B4, for which the koff stood at 1.45e-05 s⁻¹ and the kon was found to be 257000 M⁻¹ s⁻¹.
Molecule B5 gave a Kd of 0.346 nM, a koff of 7.72e-05 s⁻¹ and an on-rate constant (kon) of 223000 M⁻¹ s⁻¹.
With B2, the Kd was found to be 0.0194 nM, the koff was found to be 1.18e-05 s⁻¹ and the kon is 605000 M⁻¹ s⁻¹.

For the next assay, the target named is human CD47 (full length) expressed on cells (human) (UniProt Q08722). Nature of the assay: FACS ligand blocking on CD47-CHO cells; blocked ligand FITC human SIRPa huFc at 4 ug/ml.
Chain of human CD47 (full length) expressed on cells (human) (Q08722 19-323): as above
B3 yielded a half-maximal inhibitory concentration (IC50) of 8.6 mg/L.

The next assay has as its target T2, human CD47ECD His tagged protein. Description: SPR (Biacore 3000); antibody captured on anti-human Fc chip, monovalent HuCD47ECD 8xHis injected; column Affinity (nM). On the procedure: as §2
As for B3, the Kd amounted to 0.798 nM.
With B4, the Kd amounted to 3.13 nM.
Regarding B5, the Kd turned out to be 3.62 nM.
Still for that read-out and setting: the result for B2 reads 0.702 nM.

In another assay the target is T4, human CD47 (full length) expressed on …. Description: FACS ligand blocking on CD47-CHO cells; blocked ligand FITC human SIRPa huFc at 5 ug/ml. On the procedure:
The cells were then washed 3 times with the FACS buffer and the mean florescence intensities (MFI) of FITC were evaluated by FACS Caliber.
In the case of B2, the IC50 was found to be 1.6 mg/L.
